Paper PMC9482650, “Quantitative fragmentomics allow affinity mapping of interactomes” (Nature Communications, 2022)
Blank lines part the entries; values can stand above or below the binder they belong to.

Assays:
Assay in all cases: holdup assay
Design in all cases: key: below the threshold = too weak to quantify, mostly under pKd 3.1 to 4
DFNB31_2, Q9P202 = target: T1, DFNB31_2, Q9P202
T1 sequence (Q9P202 274-371, limits assumed, looked up): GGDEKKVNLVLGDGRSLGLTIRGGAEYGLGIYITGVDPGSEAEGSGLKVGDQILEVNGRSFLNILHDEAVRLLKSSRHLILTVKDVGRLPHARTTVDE

DLG3_1, Q92796 = target: T2, DLG3_1, Q92796
T2 sequence (Q92796 125-227, limits assumed, looked up): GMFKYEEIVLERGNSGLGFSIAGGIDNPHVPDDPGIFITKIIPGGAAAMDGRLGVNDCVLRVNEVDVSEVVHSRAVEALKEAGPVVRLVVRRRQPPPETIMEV

DLG4_1, P78352 = target: DLG4_1, P78352
FRMPD2_1, Q68DX3 = target: FRMPD2_1, Q68DX3
GORASP1, Q9BQQ3 = target: GORASP1, Q9BQQ3
Inadl_6, Q8NI35 = target: Inadl_6, Q8NI35
LIN7B, Q9HAP6 = target: T3, LIN7B, Q9HAP6
T3 sequence (Q9HAP6 88-185, limits assumed, looked up): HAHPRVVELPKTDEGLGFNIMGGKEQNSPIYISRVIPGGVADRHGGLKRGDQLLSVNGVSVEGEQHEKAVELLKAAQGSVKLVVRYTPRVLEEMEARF

LIN7C, Q9NUP9 = target: T4, LIN7C, Q9NUP9
T4 sequence (Q9NUP9 88-185, limits assumed, looked up): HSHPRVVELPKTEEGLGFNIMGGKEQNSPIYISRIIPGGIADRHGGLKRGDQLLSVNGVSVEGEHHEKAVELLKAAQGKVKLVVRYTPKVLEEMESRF

LNX1_3, Q8TBB1 = target: LNX1_3, Q8TBB1
MAGI1_1, Q96QZ7 = target: MAGI1_1, Q96QZ7
MAGI2_2, Q86UL8 = target: MAGI2_2, Q86UL8
MAGI3_2, Q5TCQ9 = target: MAGI3_2, Q5TCQ9
MPDZ_5, O75970 = target: T5, MPDZ_5, O75970
T5 sequence (O75970 695-796, limits assumed, looked up): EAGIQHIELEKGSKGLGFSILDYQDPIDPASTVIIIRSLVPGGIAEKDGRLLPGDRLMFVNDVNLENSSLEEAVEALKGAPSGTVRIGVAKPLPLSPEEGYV

MPP7, Q5T2T1 = target: T6, MPP7, Q5T2T1
T6 sequence (Q5T2T1 134-230, limits assumed, looked up): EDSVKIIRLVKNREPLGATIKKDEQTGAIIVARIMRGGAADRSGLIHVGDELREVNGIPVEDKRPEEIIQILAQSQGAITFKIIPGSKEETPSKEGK

NHERF3_3, Q5T2W1 = target: T7, NHERF3_3, Q5T2W1
T7 sequence (Q5T2W1 238-333, limits assumed, looked up): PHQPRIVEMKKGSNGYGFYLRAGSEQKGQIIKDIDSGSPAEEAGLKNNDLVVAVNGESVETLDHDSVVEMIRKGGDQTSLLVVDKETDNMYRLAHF

NHERF4_1, Q86UT5-2 = target: NHERF4_1, Q86UT5-2
PDZRN3_1, Q9UPQ7 = target: T8, PDZRN3_1, Q9UPQ7
T8 sequence (Q9UPQ7 244-349, limits assumed, looked up): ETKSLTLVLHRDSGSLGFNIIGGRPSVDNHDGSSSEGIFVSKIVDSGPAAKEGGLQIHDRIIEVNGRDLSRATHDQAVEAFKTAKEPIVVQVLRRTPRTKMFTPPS

PTPN13_1, Q12923 = target: T9, PTPN13_1, Q12923
T9 sequence (Q12923 1088-1188, limits assumed, looked up): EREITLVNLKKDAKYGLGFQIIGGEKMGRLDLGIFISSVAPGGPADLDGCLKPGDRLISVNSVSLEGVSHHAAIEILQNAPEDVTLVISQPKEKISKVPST

RAPGEF6, Q8TEU7 = target: T10, RAPGEF6, Q8TEU7
T10 sequence (Q8TEU7 525-625, limits assumed, looked up): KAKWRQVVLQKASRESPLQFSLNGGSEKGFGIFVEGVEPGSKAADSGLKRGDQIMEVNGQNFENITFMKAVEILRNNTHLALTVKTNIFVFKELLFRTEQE

RHPN1, Q8TCX5 = target: T11, RHPN1, Q8TCX5
T11 sequence (Q8TCX5 508-602, limits assumed, looked up): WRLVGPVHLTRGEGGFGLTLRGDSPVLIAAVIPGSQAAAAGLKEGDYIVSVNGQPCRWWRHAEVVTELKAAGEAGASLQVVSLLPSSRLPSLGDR

SCRIB_3, Q14160 = target: SCRIB_3, Q14160
SNTB1, Q13884 = target: T12, SNTB1, Q13884
T12 sequence (Q13884 107-205, limits assumed, looked up): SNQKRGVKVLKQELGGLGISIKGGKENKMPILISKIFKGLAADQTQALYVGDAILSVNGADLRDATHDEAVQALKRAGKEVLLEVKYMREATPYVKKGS

SNX27, Q96L92 = target: SNX27, Q96L92
TIAM2, Q8IVF5 = target: T13, TIAM2, Q8IVF5
T13 sequence (Q8IVF5 885-986, limits assumed, looked up): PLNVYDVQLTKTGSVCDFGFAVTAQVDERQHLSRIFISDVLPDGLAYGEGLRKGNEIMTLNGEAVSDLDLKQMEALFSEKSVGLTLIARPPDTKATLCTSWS

[1] = plain residues with an end cap or a label only (N-terminal biotin on a linker: ttds)
[2] = plain residues with an end cap or a label only (N-terminal biotin on a linker: ahx)

MAGI1_1, Q96QZ7, sequence (Q96QZ7 1-106): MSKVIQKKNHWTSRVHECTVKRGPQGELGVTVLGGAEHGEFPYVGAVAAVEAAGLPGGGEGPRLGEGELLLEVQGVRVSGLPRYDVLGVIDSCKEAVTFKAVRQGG
NHERF4_1, Q86UT5-2, sequence (Q86UT5 other isoform, or with tags, fused parts or gaps): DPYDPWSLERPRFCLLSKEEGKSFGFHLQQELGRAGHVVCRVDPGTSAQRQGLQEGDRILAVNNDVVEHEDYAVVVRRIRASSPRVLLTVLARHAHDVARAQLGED
LNX1_3, Q8TBB1, sequence (Q8TBB1 500-596): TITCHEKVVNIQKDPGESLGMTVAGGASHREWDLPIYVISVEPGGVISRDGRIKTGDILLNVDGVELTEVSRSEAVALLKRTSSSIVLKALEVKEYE
Inadl_6, Q8NI35, sequence (Q8NI35 1058-1167): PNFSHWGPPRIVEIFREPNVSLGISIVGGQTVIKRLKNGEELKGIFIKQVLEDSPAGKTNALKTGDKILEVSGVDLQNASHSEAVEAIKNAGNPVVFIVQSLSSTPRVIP
MAGI2_2, Q86UL8, sequence (Q86UL8 410-522): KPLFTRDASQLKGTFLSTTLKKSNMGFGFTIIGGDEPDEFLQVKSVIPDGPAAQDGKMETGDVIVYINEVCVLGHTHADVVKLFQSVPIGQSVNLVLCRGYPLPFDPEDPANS
GORASP1, Q9BQQ3, sequence (Q9BQQ3 1-208): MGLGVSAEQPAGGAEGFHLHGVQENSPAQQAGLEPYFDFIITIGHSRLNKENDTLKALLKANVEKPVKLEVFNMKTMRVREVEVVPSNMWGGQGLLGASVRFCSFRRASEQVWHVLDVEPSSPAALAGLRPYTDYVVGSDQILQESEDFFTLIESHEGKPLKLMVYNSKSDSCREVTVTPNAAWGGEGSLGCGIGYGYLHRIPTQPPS
DLG4_1, P78352, sequence (P78352 62-152): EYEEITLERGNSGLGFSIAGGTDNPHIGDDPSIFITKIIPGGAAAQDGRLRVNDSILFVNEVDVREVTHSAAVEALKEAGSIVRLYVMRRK
FRMPD2_1, Q68DX3, sequence (Q68DX3 770-861): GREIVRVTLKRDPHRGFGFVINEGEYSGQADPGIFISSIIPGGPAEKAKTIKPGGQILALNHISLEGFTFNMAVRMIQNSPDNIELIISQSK
SCRIB_3, Q14160, sequence (Q14160 999-1103): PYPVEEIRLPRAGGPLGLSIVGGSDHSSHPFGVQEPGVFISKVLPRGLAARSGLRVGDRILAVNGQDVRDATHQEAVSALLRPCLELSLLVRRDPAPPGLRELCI
MAGI3_2, Q5TCQ9, sequence (Q5TCQ9 398-503): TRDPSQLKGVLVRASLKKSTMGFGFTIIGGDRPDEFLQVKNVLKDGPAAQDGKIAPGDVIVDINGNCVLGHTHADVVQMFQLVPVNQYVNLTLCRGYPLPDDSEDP

- pKd (DFNB31_2, Q9P202; [1]): below the threshold
- pKd (DLG3_1, Q92796; [1]): 3.84
- pKd (DLG4_1, P78352; [1]): 4.23
- pKd (FRMPD2_1, Q68DX3; [1]): 3.84
- pKd (GORASP1, Q9BQQ3; [1]): below the threshold
- pKd (Inadl_6, Q8NI35; [1]): 4.89
- pKd (LIN7B, Q9HAP6; [1]): 4.44
- pKd (LIN7C, Q9NUP9; [1]): 4.68
- pKd (LNX1_3, Q8TBB1; [1]): below the threshold
- pKd (MAGI1_1, Q96QZ7; [1]): below the threshold
- pKd (MAGI2_2, Q86UL8; [1]): 4.13
- pKd (MAGI3_2, Q5TCQ9; [1]): 4
- pKd (MPDZ_5, O75970; [1]): below the threshold
- pKd (MPP7, Q5T2T1; [1]): 3.56
- pKd (NHERF3_3, Q5T2W1; [1]): 3.61
- pKd (NHERF4_1, Q86UT5-2; [1]): 4.61
- pKd (PDZRN3_1, Q9UPQ7; [1]): 5.46
- pKd (PTPN13_1, Q12923; [1]): below the threshold
- pKd (RAPGEF6, Q8TEU7; [1]): below the threshold
- pKd (RHPN1, Q8TCX5; [1]): 4.87
- pKd (SCRIB_3, Q14160; [1]): 5.59
- pKd (SNTB1, Q13884; [1]): 5.05
- pKd (SNX27, Q96L92; [1]): 5.85
- pKd (TIAM2, Q8IVF5; [1]): below the threshold
B1: ABCC4, O15439 (peptide)
chain: STLTIFETAL

- pKd (DFNB31_2, Q9P202; [1]): below the threshold
- pKd (DLG3_1, Q92796; [1]): below the threshold
- pKd (DLG4_1, P78352; [1]): below the threshold
- pKd (FRMPD2_1, Q68DX3; [1]): below the threshold
- pKd (GORASP1, Q9BQQ3; [1]): below the threshold
- pKd (Inadl_6, Q8NI35; [1]): 3.91
- pKd (LIN7B, Q9HAP6; [1]): below the threshold
- pKd (LIN7C, Q9NUP9; [1]): below the threshold
- pKd (LNX1_3, Q8TBB1; [1]): below the threshold
- pKd (MAGI1_1, Q96QZ7; [1]): below the threshold
- pKd (MAGI2_2, Q86UL8; [1]): below the threshold
- pKd (MAGI3_2, Q5TCQ9; [1]): below the threshold
- pKd (MPDZ_5, O75970; [1]): below the threshold
- pKd (MPP7, Q5T2T1; [1]): below the threshold
- pKd (NHERF3_3, Q5T2W1; [1]): below the threshold
- pKd (NHERF4_1, Q86UT5-2; [1]): 4.16
- pKd (PDZRN3_1, Q9UPQ7; [1]): 4.44
- pKd (PTPN13_1, Q12923; [1]): below the threshold
- pKd (RAPGEF6, Q8TEU7; [1]): below the threshold
- pKd (RHPN1, Q8TCX5; [1]): 4.47
- pKd (SCRIB_3, Q14160; [1]): 4.57
- pKd (SNTB1, Q13884; [1]): 4.13
- pKd (SNX27, Q96L92; [1]): 4.97
- pKd (TIAM2, Q8IVF5; [1]): below the threshold
B2: ARHGAP17, Q68EM7 (peptide)
chain: IDNDTESTAL

- pKd (DFNB31_2, Q9P202; [2]): below the threshold
- pKd (DLG3_1, Q92796; [2]): below the threshold
- pKd (DLG4_1, P78352; [2]): below the threshold
- pKd (FRMPD2_1, Q68DX3; [2]): below the threshold
- pKd (GORASP1, Q9BQQ3; [2]): below the threshold
- pKd (Inadl_6, Q8NI35; [2]): below the threshold
- pKd (LIN7B, Q9HAP6; [2]): below the threshold
- pKd (LIN7C, Q9NUP9; [2]): below the threshold
- pKd (LNX1_3, Q8TBB1; [2]): below the threshold
- pKd (MAGI1_1, Q96QZ7; [2]): below the threshold
- pKd (MAGI2_2, Q86UL8; [2]): below the threshold
- pKd (MAGI3_2, Q5TCQ9; [2]): below the threshold
- pKd (MPDZ_5, O75970; [2]): below the threshold
- pKd (MPP7, Q5T2T1; [2]): below the threshold
- pKd (NHERF3_3, Q5T2W1; [2]): below the threshold
- pKd (NHERF4_1, Q86UT5-2; [2]): below the threshold
- pKd (PDZRN3_1, Q9UPQ7; [2]): below the threshold
- pKd (PTPN13_1, Q12923; [2]): below the threshold
- pKd (RAPGEF6, Q8TEU7; [2]): below the threshold
- pKd (RHPN1, Q8TCX5; [2]): below the threshold
- pKd (SCRIB_3, Q14160; [2]): below the threshold
- pKd (SNTB1, Q13884; [2]): below the threshold
- pKd (SNX27, Q96L92; [2]): below the threshold
- pKd (TIAM2, Q8IVF5; [2]): below the threshold
B3: MYO18A, Q92614 (peptide)
chain: TEAKLTETNA

- pKd (DFNB31_2, Q9P202; [1]): below the threshold
- pKd (DLG3_1, Q92796; [1]): below the threshold
- pKd (DLG4_1, P78352; [1]): 3.52
- pKd (FRMPD2_1, Q68DX3; [1]): below the threshold
- pKd (GORASP1, Q9BQQ3; [1]): below the threshold
- pKd (Inadl_6, Q8NI35; [1]): below the threshold
- pKd (LIN7B, Q9HAP6; [1]): below the threshold
- pKd (LIN7C, Q9NUP9; [1]): below the threshold
- pKd (LNX1_3, Q8TBB1; [1]): below the threshold
- pKd (MAGI1_1, Q96QZ7; [1]): 3.55
- pKd (MAGI2_2, Q86UL8; [1]): below the threshold
- pKd (MAGI3_2, Q5TCQ9; [1]): below the threshold
- pKd (MPDZ_5, O75970; [1]): below the threshold
- pKd (MPP7, Q5T2T1; [1]): below the threshold
- pKd (NHERF3_3, Q5T2W1; [1]): below the threshold
- pKd (NHERF4_1, Q86UT5-2; [1]): 3.73
- pKd (PDZRN3_1, Q9UPQ7; [1]): 4.67
- pKd (PTPN13_1, Q12923; [1]): below the threshold
- pKd (RAPGEF6, Q8TEU7; [1]): 3.55
- pKd (RHPN1, Q8TCX5; [1]): 4.03
- pKd (SCRIB_3, Q14160; [1]): 4.65
- pKd (SNTB1, Q13884; [1]): 3.86
- pKd (SNX27, Q96L92; [1]): 4.69
- pKd (TIAM2, Q8IVF5; [1]): below the threshold
B4: TJP2, Q9UDY2 (peptide)
chain: QSARYRDTEL

- pKd (DFNB31_2, Q9P202; [1]): below the threshold
- pKd (DLG3_1, Q92796; [1]): below the threshold
- pKd (DLG4_1, P78352; [1]): below the threshold
- pKd (FRMPD2_1, Q68DX3; [1]): below the threshold
- pKd (GORASP1, Q9BQQ3; [1]): 3.75
- pKd (Inadl_6, Q8NI35; [1]): 4.19
- pKd (LIN7B, Q9HAP6; [1]): 3.66
- pKd (LIN7C, Q9NUP9; [1]): below the threshold
- pKd (LNX1_3, Q8TBB1; [1]): below the threshold
- pKd (MAGI1_1, Q96QZ7; [1]): below the threshold
- pKd (MAGI2_2, Q86UL8; [1]): below the threshold
- pKd (MAGI3_2, Q5TCQ9; [1]): 3.91
- pKd (MPDZ_5, O75970; [1]): below the threshold
- pKd (MPP7, Q5T2T1; [1]): below the threshold
- pKd (NHERF3_3, Q5T2W1; [1]): below the threshold
- pKd (NHERF4_1, Q86UT5-2; [1]): 4.06
- pKd (PDZRN3_1, Q9UPQ7; [1]): 4.97
- pKd (PTPN13_1, Q12923; [1]): below the threshold
- pKd (RAPGEF6, Q8TEU7; [1]): below the threshold
- pKd (RHPN1, Q8TCX5; [1]): 5
- pKd (SCRIB_3, Q14160; [1]): 5.07
- pKd (SNTB1, Q13884; [1]): 4.49
- pKd (SNX27, Q96L92; [1]): 5.27
- pKd (TIAM2, Q8IVF5; [1]): below the threshold
B5: KCNT2, Q6UVM3 (peptide)
chain: GQDSREETQL
